Measurements from patent publication US20140193415A1.

Assays:
[1] = target: human IGF-1R (soluble, analyte in SPR) (human) (UniProt P08069); experiment: SPR (ProteOn XPR36), 25 C, Fab captured by anti-Fab; ratio against parental Ak18
[2] = target: human IGF-1R (soluble, analyte in SPR) (human) (UniProt P08069); experiment: SPR (ProteOn XPR36), 25 C, Fab captured by anti-Fab, IGF-1R as analyte

| x-fold increase of binding affinity (=KD (unmodified AK18)/KD (CDR-modified)) [1] [fold] | Kd [2] [nM] | koff [2] [s⁻¹] | kon [2] [M⁻¹ s⁻¹] | Binder |
| --- | --- | --- | --- | --- |
| 12.4 | 1.47 | 0.00025 | 170000 | <IGF-1R> F13B5 Fab fragment (affinity-matured <IGF-1R> HUMAB-Clone 18) (Fab, V domains shown) VH: QVELVESGGGVVQPGRSQRLSCAASGFTFSSYGMHWVRQAPGKGLEWVAIIWFDGSSTYYADSVRGRFTISRDNSKNTLYLQMNSLRAEDTAVYFCARELGRRYFDLWGRGTLVSVSS VL: EIVLTQSPATLSLSPGERATLSCRASQSVSSYLAWYQQKPGQAPRLLIYQASKRATGIPARFSGSGSGTDFTLTISSLEPEDFAVYYCQQRSKYPPWTFGQGTKVESK |
| 68 | 0.269 | 0.000153 | 571000 | <IGF-1R> L31D11 Fab fragment (affinity-matured <IGF-1R> HUMAB-Clone 18) (Fab, V domains shown) VH: QVELVESGGGVVQPGRSQRLSCAASGFTFSSYGMHWVRQAPGKGLEWVAIIWFDGSSTYYADSVRGRFTISRDNSKNTLYLQMNSLRAEDTAVYFCARELGRRYFDLWGRGTLVSVSS VL: EIVLTQSPATLSLSPGERATLSCRASRSVYSSLAWYQQKPGQAPRLLIYKASSRATGIPARFSGSGSGTDFTLTISSLEPEDFAVYYCQQRSKWPPWTFGQGTKVESK |
| 23.8 | 0.769 | 0.00027 | 351000 | <IGF-1R> L39D7 Fab fragment (affinity-matured <IGF-1R> HUMAB-Clone 18) (Fab, V domains shown) VH: QVELVESGGGVVQPGRSQRLSCAASGFTFSSYGMHWVRQAPGKGLEWVAIIWFDGSSTYYADSVRGRFTISRDNSKNTLYLQMNSLRAEDTAVYFCARELGRRYFDLWGRGTLVSVSS VL: EIVLTQSPATLSLSPGERATLSCRASQSVSKQLAWYQQKPGQAPRLLIYNASKRATGIPARFSGSGSGTDFTLTISSLEPEDFAVYYCQQRSKYPPWTFGQGTKVESK |
| 17.8 | 1.03 | 0.000538 | 523000 | <IGF-1R> L31D7 Fab fragment (affinity-matured <IGF-1R> HUMAB-Clone 18) (Fab, V domains shown) VH: QVELVESGGGVVQPGRSQRLSCAASGFTFSSYGMHWVRQAPGKGLEWVAIIWFDGSSTYYADSVRGRFTISRDNSKNTLYLQMNSLRAEDTAVYFCARELGRRYFDLWGRGTLVSVSS VL: EIVLTQSPATLSLSPGERATLSCRASQSVIQSLAWYQQKPGQAPRLLIYRASKRATGIPARFSGSGSGTDFTLTISSLEPEDFAVYYCQQRSKWPPWTFGQGTKVESK |
| 17.9 | 1.02 | 0.000237 | 232000 | <IGF-1R> L37F7 Fab fragment (affinity-matured <IGF-1R> HUMAB-Clone 18) (Fab, V domains shown) VH: QVELVESGGGVVQPGRSQRLSCAASGFTFSSYGMHWVRQAPGKGLEWVAIIWFDGSSTYYADSVRGRFTISRDNSKNTLYLQMNSLRAEDTAVYFCARELGRRYFDLWGRGTLVSVSS VL: EIVLTQSPATLSLSPGERATLSCRASQSVSSQLAWYQQKPGQAPRLLIYKATNRATGIPARFSGSGSGTDFTLTISSLEPEDFAVYYCQQRSKYPPWTFGQGTKVESK |
